This is an account of results in PMC5677552 (Traffic (Copenhagen, Denmark), 2017).

Test [1] concerns the target T1, GST-nup42-CTD/MBP-gle1-CTD^H337R/dbp5^L327V trimeric complex (Saccharomyces cerevisiae, UniProt P20449+Q12315, P20449:L327V/Q12315:H337R).
T1 sequence (Q12315 244-538 H337R): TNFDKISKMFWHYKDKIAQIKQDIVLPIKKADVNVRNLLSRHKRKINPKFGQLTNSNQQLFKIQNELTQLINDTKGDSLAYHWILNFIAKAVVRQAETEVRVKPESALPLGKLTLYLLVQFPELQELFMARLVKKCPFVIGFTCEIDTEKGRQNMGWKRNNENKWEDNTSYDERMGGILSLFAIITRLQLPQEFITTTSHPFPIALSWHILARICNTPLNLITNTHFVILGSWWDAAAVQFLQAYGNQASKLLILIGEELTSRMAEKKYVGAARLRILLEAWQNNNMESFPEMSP
T1 sequence (P20449 1-482 L327V): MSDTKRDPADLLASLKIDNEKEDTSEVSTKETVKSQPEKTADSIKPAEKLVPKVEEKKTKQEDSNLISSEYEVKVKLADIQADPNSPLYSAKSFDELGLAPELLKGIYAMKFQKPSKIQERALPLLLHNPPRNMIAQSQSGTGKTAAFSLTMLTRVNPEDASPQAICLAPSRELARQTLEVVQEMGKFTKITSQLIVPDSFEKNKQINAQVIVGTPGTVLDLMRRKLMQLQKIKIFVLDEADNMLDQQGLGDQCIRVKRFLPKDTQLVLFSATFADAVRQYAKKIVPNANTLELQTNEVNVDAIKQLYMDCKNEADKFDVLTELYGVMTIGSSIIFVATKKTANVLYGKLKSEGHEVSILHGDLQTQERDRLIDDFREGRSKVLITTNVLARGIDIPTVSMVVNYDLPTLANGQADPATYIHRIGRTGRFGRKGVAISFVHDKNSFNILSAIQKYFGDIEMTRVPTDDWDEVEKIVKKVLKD
T1 sequence (P49686 365-430 partner): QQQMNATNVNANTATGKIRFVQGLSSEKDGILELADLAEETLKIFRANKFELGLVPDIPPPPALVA
Kind of test: GST pull-down, IP6-dependent complex formation. The settings on record: 50 uM IP6, pH 7.5, 4 C; indirect read-out by complex formation. It is filed as binding.

Test [2] has as its target biotin-nup42^408–424 peptide (S. cerevisiae) (UniProt P49686). Kind of test: BLI. A general note: Biolayer interferometry detects binding as a change in optical thickness at a sensor tip.

As to `O=P(O)(O)O[C@H]1[C@H](OP(=O)(O)O)[C@@H](OP(=O)(O)O)[C@H](OP(=O)(O)O)[C@@H](OP(=O)(O)O)[C@H]1OP(=O)(O)O` [IP6], the “GST pull-down, IP6-dependent complex formation (SDS-PAGE)” value in test [1] was “complex was observed only in the presence of IP6”. What is called Kd is the concentration at which binding is half-saturated. High values mean a looser complex, low ones a tighter complex. Consider “MBP-gle1-CTD (from UniProt Q12315 1-538) (domain or fragment)”, for which the Kd in test [2] worked out at 91.5 nM. In other words, the double-digit nanomolar range.

The compound “MBP-gle1-CTD^QKEE>AAAA (from UniProt Q12315 1-538) (domain or fragment)” showed a Kd in test [2] of 599 nM.
